Data: paper PMC9105526, “Escherichia coli tRNA 2-Selenouridine Synthase (SelU): Elucidation of Substrate Specificity to Understand the Role of S-Geranyl-tRNA in the Conversion of 2-Thio- into 2-Selenouridines in Bacterial tRN”

Molecular target: T1, MBP-SelU (tRNA 2-selenouridine synthase) (Escherichia coli, UniProt P33667 1-364)
T1 sequence: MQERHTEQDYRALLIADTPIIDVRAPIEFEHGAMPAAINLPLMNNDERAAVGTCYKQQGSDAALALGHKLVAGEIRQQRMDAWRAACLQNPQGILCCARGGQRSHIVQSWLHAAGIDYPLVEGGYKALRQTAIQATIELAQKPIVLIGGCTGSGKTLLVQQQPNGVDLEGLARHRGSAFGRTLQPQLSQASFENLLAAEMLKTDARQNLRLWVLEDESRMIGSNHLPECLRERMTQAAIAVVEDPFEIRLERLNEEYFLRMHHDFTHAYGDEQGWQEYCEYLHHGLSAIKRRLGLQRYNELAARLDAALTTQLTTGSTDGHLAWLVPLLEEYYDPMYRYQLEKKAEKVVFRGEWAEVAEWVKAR
Assay: MST (initial fluorescence); 10 mM Mg2+; MST: 2x assay buffer 20 mM Tricine pH 7.2, 20 mM MgCl2, 0.1% Tween-20 mixed with RNA (about 10 mM Tricine, 10 mM MgCl2, 0.05% Tween-20 final if 1:1); Cy3-RNA 50-75 nM; 30 min at room temperature, measured at 22 C
Conditions: protein: recombinant, tags: N-terminal MBP (42 kDa, pMAL-c5x), label: 5'-Cy3, hairpin

B1: Cy3-geS2U(34)-RNALys (structured_RNA)
RNA: GUUGACUUUUAAUCAAC
modifications: S-geranyl-2-thiouridine (geS2U) at nt 8 (tRNA position 34)
Kd (7-nt loop): 3.95 ± 0.4 µM

B2: Cy3-Se2U(34)-RNALys (structured_RNA)
RNA: GUUGACUUUUAAUCAAC
modifications: 2-selenouridine (Se2U) at nt 8 (tRNA position 34)
Kd (7-nt loop): 27.1 ± 1.5 µM

B3: Cy3-U(34)-RNALys (structured_RNA)
RNA: GUUGACUUUUAAUCAAC
Kd (7-nt loop CUUUUAA): 25.5 ± 1.8 µM

B4: Cy3-S2U(34)-RNALys (structured_RNA)
RNA: GUUGACUUUUAAUCAAC
modifications: 2-thiouridine (S2U) at nt 8 (tRNA position 34)
Kd (7-nt loop): 22.4 ± 1.6 µM
